B1: cGULO (C-terminal catalytic domain of rat GULO, cGULO-His) (Rattus norvegicus) (protein)
chain: NRFFFWMLFNCKKESSNLSHKIFTYECRFKQHVQDWAIPREKTKEALLELKAMLEAHPKVVAHYPVEVRFTRGDDILLSPCFQRDSCYMNIIMYRPYGKDVPRLDYWLAYETIMKKFGGRPHWAKAHNCTQKDFEEMYPTFHKFCDIREKLDPTGMFLNSYLEKVFY
notes: C-terminal cytoplasmic (catalytic ALO) domain, 167 residues, lacks 273 N-terminal residues incl
B2: fGULO (full-length rat GULO, fGULO-His) (Rattus norvegicus) (protein)
chain: MVHGYKGVQFQNWAKTYGCSPEVYYQPTSVEEVREVLALAREQKKKVKVVGGGHSPSDIACTDGFMIHMGKMNRVLQVDKEKKQITVEAGILLADLHPQLDEHGLAMSNLGAVSDVTVAGVIGSGTHNTGIKHGILATQVVALTLMTADGEVLECSESRNADVFQAARVHLGCLGIILTVTLQCVPQFHLQETSFPSTLKEVLDNLDSHLKRSEYFRFLWFPHTENVSIIYQDHTNKAPSSASNWFWDYAIGFYLLEFLLWTSTYLPCLVGWINRFFFWMLFNCKKESSNLSHKIFTYECRFKQHVQDWAIPREKTKEALLELKAMLEAHPKVVAHYPVEVRFTRGDDILLSPCFQRDSCYMNIIMYRPYGKDVPRLDYWLAYETIMKKFGGRPHWAKAHNCTQKDFEEMYPTFHKFCDIREKLDPTGMFLNSYLEKVFY

Substrate: O=C1O[C@H]([C@@H](O)CO)[C@H](O)[C@@H]1O
Assay: ascorbic acid formation, colorimetric kit; Lineweaver-Burk
Format: biochemical, Rattus norvegicus
Conditions: 50 mM potassium phosphate pH 7.0, 50 mM citrate, 1 mM DTT, 10 µM FAD, aerobic (O2), 37 °C

Protein	Km
B1	42 ± 6.3 µM
B2	53.5 ± 5 µM
